In patent US20230265151A1, “GIP/GLP1 CO-AGONIST COMPOUNDS” (priority 2020, published 2023):
Positions count from the first letter of the chain named.

B1: Example 302 (peptide)
peptide: YXEGTXTSDYXIXLDXKAQXEFIXXLIEGGPSSGAPPPSK
modifications: Y-Aib-EGT-αMeF(2F)-TSDY-Aib-I-αMeL-LD-Orn-K((2-[2-(2-Amino-ethoxy)-ethoxy]-acetyl)2-(γ-Glu)-CO-(CH2)10-CH3)AQ-Aib-EFI-(D-Glu)-αMeY-LIEGGPSSGAPPPSK((2-[2-(2-Amino-ethoxy)-ethoxy]-acetyl)2-(γ-Glu)-CO-(CH2)10-CH3)-NH2
B2: Example 292 (peptide)
peptide: YXEGTXTSDKXIXLDXKAQXEFIXXLIEGGPSSGAPPPS
modifications: Y-Aib-EGT-αMeF(2F)-TSDK((2-[2-(2-Amino-ethoxy)-ethoxy]-acetyl)2-(γ-Glu)-CO-(CH2)10-CH3)-Aib-I-αMeL-LD-Orn-K((2-[2-(2-Amino-ethoxy)-ethoxy]-acetyl)2-(γ-Glu)-CO-(CH2)10-CH3)AQ-Aib-EFI-(D-Glu)-αMeY-LIEGGPSSGAPPPS-NH2
B3: Example 300 (peptide)
peptide: B2 peptide with K10Y, E21K
modifications: Y-Aib-EGT-αMeF(2F)-TSDY-Aib-I-αMeL-LD-Orn-K((2-[2-(2-Amino-ethoxy)-ethoxy]-acetyl)2-(γ-Glu)-CO-(CH2)10-CH3)AQ-Aib-K((2-[2-(2-Amino-ethoxy)-ethoxy]-acetyl)2-(γ-Glu)-CO-(CH2)10-CH3)FI-(D-Glu)-αMeY-LIEGGPSSGAPPPS-NH2
B4: Example 301 (peptide)
peptide: B2 peptide with K10Y, E28K
modifications: Y-Aib-EGT-αMeF(2F)-TSDY-Aib-I-αMeL-LD-Orn-K((2-[2-(2-Amino-ethoxy)-ethoxy]-acetyl)2-(γ-Glu)-CO-(CH2)10-CH3)AQ-Aib-EFI-(D-Glu)-αMeY-LIK((2-[2-(2-Amino-ethoxy)-ethoxy]-acetyl)2-(γ-Glu)-CO-(CH2)10-CH3)GGPSSGAPPPS-NH2
B5: Example 299 (peptide)
peptide: B2 peptide with K10X, X11S, E21X, E28K
modifications: Y-Aib-EGT-αMeF(2F)-TSD-4Pal-SI-αMeL-LD-Orn-K((2-[2-(2-Amino-ethoxy)-ethoxy]-acetyl)2-(γ-Glu)-CO-(CH2)10-CH3)AQ-Aib-Orn-FI-(D-Glu)-αMeY-LIK((2-[2-(2-Amino-ethoxy)-ethoxy]-acetyl)2-(γ-Glu)-CO-(CH2)10-CH3)GGPSSGAPPPS-NH2
B6: Example 319 (peptide)
peptide: B2 peptide with K10V, E21K
modifications: Y-Aib-EGT-αMeF(2F)-TSDV-Aib-I-αMeL-LD-Orn-K((2-[2-(2-Amino-ethoxy)-ethoxy]-acetyl)2-(γ-Glu)-(10-(4-carboxyphenoxy)decanoyl))AQ-Aib-K((2-[2-(2-Amino-ethoxy)-ethoxy]-acetyl)2-(γ-Glu)-(10-(4-carboxyphenoxy)decanoyl))FI-(D-Glu)-αMeY-LIEGGPSSGAPPPS-NH2
B7: Example 298 (peptide)
peptide: B2 peptide with K10X, X11S, E21K, E28X
modifications: Y-Aib-EGT-αMeF(2F)-TSD-4Pal-SI-αMeL-LD-Orn-K((2-[2-(2-Amino-ethoxy)-ethoxy]-acetyl)2-(γ-Glu)-CO-(CH2)10-CH3)AQ-Aib-K((2-[2-(2-Amino-ethoxy)-ethoxy]-acetyl)2-(γ-Glu)-CO-(CH2)10-CH3)FI-(D-Glu)-αMeY-LI-Orn-GGPSSGAPPPS-NH2
B8: Example 318 (peptide)
peptide: B2 peptide with K10V, E21K
modifications: Y-Aib-EGT-αMeF(2F)-TSDV-Aib-I-αMeL-LD-Orn-K((2-[2-(2-Amino-ethoxy)-ethoxy]-acetyl)2-(γ-Glu)-CO-(CH2)12-CO2H)AQ-Aib-K((2-[2-(2-Amino-ethoxy)-ethoxy]-acetyl)2-(γ-Glu)-CO-(CH2)12-CO2H)FI-(D-Glu)-αMeY-LIEGGPSSGAPPPS-NH2
B9: Example 293 (peptide)
peptide: B2 peptide with X11S, F22X
modifications: Y-Aib-EGT-αMeF(2F)-TSDK((2-[2-(2-Amino-ethoxy)-ethoxy]-acetyl)2-(γ-Glu)-CO-(CH2)10-CH3)SI-αMeL-LD-Orn-K((2-[2-(2-Amino-ethoxy)-ethoxy]-acetyl)2-(γ-Glu)-CO-(CH2)10-CH3)AQ-Aib-E-αMeF-I-(D-Glu)-αMeY-LIEGGPSSGAPPPS-NH2
B10: Example 315 (peptide)
peptide: YXEGTXTSDXXIXLDXIAQXXFIKXLIKGGPSSGAPPPS
modifications: Y-Aib-EGT-αMeF(2F)-TSD-4Pal-Aib-I-αMeL-LD-Orn-IAQ-Aib-Orn-FIK((2-[2-(2-Amino-ethoxy)-ethoxy]-acetyl)2-(γ-Glu)-CO-(CH2)12-CO2H)-αMeY-LIK((2-[2-(2-Amino-ethoxy)-ethoxy]-acetyl)2-(γ-Glu)-CO-(CH2)12-CO2H)GGPSSGAPPPS-NH2
B11: Example 316 (peptide)
peptide: B10 peptide with X10Y
modifications: Y-Aib-EGT-αMeF(2F)-TSDY-Aib-I-αMeL-LD-Orn-IAQ-Aib-Orn-FIK((2-[2-(2-Amino-ethoxy)-ethoxy]-acetyl)2-(γ-Glu)-CO-(CH2)12-CO2H)-αMeY-LIK((2-[2-(2-Amino-ethoxy)-ethoxy]-acetyl)2-(γ-Glu)-CO-(CH2)12-CO2H)GGPSSGAPPPS-NH2
B12: Example 332 (peptide)
peptide: B10 peptide with X11S, X21K, K24X
modifications: Y-Aib-EGT-αMeF(2F)-TSD-hTyr-SI-αMeL-LD-Orn-IAQ-Aib-K((2-[2-(2-Amino-ethoxy)-ethoxy]-acetyl)2-(γ-Glu)-(10-(4-carboxyphenoxy)decanoyl))FI-(D-Glu)-αMeY-LIK((2-[2-(2-Amino-ethoxy)-ethoxy]-acetyl)2-(γ-Glu)-(10-(4-carboxyphenoxy)decanoyl))GGPSSGAPPPS-NH2

target: hGLP-1R (Homo sapiens, UniProt P43220); test: cell-based or functional assay

Point of comparison: B2, cAMP EC50 0.0758 nM. Against it:
- B1 — within 1.5-fold, 0.0917 nM
- B3 — 2.6-fold higher, 0.194 nM
- B4 — 2.3-fold higher, 0.175 nM
- B5 — 1.7-fold higher, 0.126 nM
- B6 — 2.4-fold higher, 0.18 nM
- B7 — 2.5-fold higher, 0.19 nM
- B8 — 2.9-fold higher, 0.219 nM
- B9 — within 1.5-fold, 0.102 nM

Point of comparison: B1, cAMP Emax 103%. Against it:
- B2 — higher, 104%
- B3 — higher, 107%
- B4 — lower, 99.2%
- B5 — the same, 103%
- B6 — lower, 100%
- B7 — higher, 106%
- B8 — lower, 99.9%
- B9 — lower, 102%

target: T1, human GIP receptor (human) (UniProt P48546); test: cell-based or functional assay
T1 sequence (looked up): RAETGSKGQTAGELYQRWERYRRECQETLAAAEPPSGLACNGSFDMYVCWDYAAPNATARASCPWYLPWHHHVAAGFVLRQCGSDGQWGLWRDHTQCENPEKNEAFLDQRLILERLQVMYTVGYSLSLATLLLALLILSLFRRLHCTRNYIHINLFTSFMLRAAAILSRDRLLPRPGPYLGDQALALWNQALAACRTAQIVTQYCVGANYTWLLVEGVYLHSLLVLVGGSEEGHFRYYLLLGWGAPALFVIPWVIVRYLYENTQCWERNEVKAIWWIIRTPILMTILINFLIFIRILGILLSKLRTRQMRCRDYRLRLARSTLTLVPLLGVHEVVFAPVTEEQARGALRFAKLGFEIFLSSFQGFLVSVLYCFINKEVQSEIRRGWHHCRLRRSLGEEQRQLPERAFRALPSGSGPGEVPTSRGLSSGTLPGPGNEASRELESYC

Point of comparison: B6, cAMP EC50 0.0196 nM. Against it:
- B1 — 2.1-fold lower, 0.00916 nM
- B2 — 3.2-fold lower, 0.0062 nM
- B3 — 1.5-fold lower, 0.0128 nM
- B4 — 1.5-fold lower, 0.0128 nM
- B5 — 1.9-fold lower, 0.0104 nM
- B8 — 2.1-fold higher, 0.0402 nM
- B9 — 2.1-fold lower, 0.00915 nM

Point of comparison: B7, cAMP Emax 97.4%. Against it:
- B1 — higher, 100%
- B3 — higher, 102%
- B4 — the same, 97.4%
- B5 — higher, 101%
- B6 — higher, 98.1%
- B8 — higher, 106%
- B9 — higher, 102%

target: human glucagon receptor (human) (UniProt P47871); test: cell-based or functional assay

B1 and B2 cannot be ordered by cAMP EC50: > 9950 nM for the first, > 9950 nM for the second.

B3 and B4 cannot be ordered by cAMP EC50: > 9950 nM for the first, > 9950 nM for the second.

B5 and B6 cannot be ordered by cAMP EC50: > 9950 nM for the first, > 9950 nM for the second.

B7 and B8 cannot be ordered by cAMP EC50: > 9950 nM for the first, > 9950 nM for the second.

For B9, the cAMP EC50 was > 9950 nM.

target: T2, human GIP receptor (human, UniProt P48546 22-466); test: cell-based or functional assay
T2 sequence (looked up): T1 sequence (looked up)

Point of comparison: B4, “cAMP EC50 (1.0% HSA)” value 0.919 nM. Against it:
- B10 — 2.3-fold lower, 0.393 nM
- B11 — within 1.5-fold, 1.11 nM
- B12 — 5-fold higher, 4.59 nM
- B1 — 2-fold lower, 0.453 nM
- B2 — 2.2-fold lower, 0.416 nM
- B3 — within 1.5-fold, 1.25 nM
- B5 — 4.5-fold lower, 0.204 nM
- B6 — 3.6-fold higher, 3.35 nM
- B7 — 3.9-fold lower, 0.237 nM
- B8 — 5.9-fold higher, 5.42 nM
- B9 — within 1.5-fold, 0.987 nM

Point of comparison: B9, “cAMP Emax (1.0% HSA)” value 96.6%. Against it:
- B10 — lower, 89.2%
- B3 — lower, 91.5%
- B4 — lower, 85.5%
- B7 — lower, 95%

target: human GLP-1 receptor (human, UniProt P43220 24-463); test: cell-based or functional assay

Point of comparison: B12, “cAMP EC50 (1.0% HSA)” value 33.3 nM. Against it:
- B10 — 6.2-fold lower, 5.38 nM
- B11 — 1.7-fold lower, 19.2 nM
- B1 — 5.1-fold lower, 6.55 nM
- B2 — 7.7-fold lower, 4.35 nM
- B3 — 1.7-fold lower, 19.6 nM
- B4 — 2.6-fold lower, 12.9 nM
- B5 — 13-fold lower, 2.58 nM
- B6 — within 1.5-fold, 28.1 nM
- B7 — 9.1-fold lower, 3.64 nM
- B8 — within 1.5-fold, 28.7 nM
- B9 — 3.1-fold lower, 10.7 nM

Point of comparison: B6, “cAMP Emax (1.0% HSA)” value 114%. Against it:
- B10 — lower, 93.5%
- B11 — lower, 113%
- B12 — higher, 116%
- B1 — lower, 99.4%
- B5 — lower, 102%
- B9 — lower, 99.4%

target: human glucagon receptor (human, UniProt P47871 26-477); test: cell-based or functional assay

B10 and B11 cannot be ordered by “cAMP EC50 (1.0% HSA)” value: > 9950 nM for the first, > 9950 nM for the second.

B12 and B1 cannot be ordered by “cAMP EC50 (1.0% HSA)” value: > 9950 nM for the first, > 9950 nM for the second.

B2 and B3 cannot be ordered by “cAMP EC50 (1.0% HSA)” value: > 9950 nM for the first, > 9950 nM for the second.

B4 and B5 cannot be ordered by “cAMP EC50 (1.0% HSA)” value: > 9950 nM for the first, > 9950 nM for the second.

B6 and B7 cannot be ordered by “cAMP EC50 (1.0% HSA)” value: > 9950 nM for the first, > 9950 nM for the second.

B8 and B9 cannot be ordered by “cAMP EC50 (1.0% HSA)” value: > 9950 nM for the first, > 9950 nM for the second.
